In US20160272683A1 (Novo Nordisk, published 2016):
* marks the point of attachment. C18 diacid = O=C(O)CCCCCCCCCCCCCCCCC(=O)*

T1: human calcitonin receptor (human, UniProt P30988 25-474)
T1 construct: whole, on cells; also called hCT-R; hCTR
T1 sequence (looked up): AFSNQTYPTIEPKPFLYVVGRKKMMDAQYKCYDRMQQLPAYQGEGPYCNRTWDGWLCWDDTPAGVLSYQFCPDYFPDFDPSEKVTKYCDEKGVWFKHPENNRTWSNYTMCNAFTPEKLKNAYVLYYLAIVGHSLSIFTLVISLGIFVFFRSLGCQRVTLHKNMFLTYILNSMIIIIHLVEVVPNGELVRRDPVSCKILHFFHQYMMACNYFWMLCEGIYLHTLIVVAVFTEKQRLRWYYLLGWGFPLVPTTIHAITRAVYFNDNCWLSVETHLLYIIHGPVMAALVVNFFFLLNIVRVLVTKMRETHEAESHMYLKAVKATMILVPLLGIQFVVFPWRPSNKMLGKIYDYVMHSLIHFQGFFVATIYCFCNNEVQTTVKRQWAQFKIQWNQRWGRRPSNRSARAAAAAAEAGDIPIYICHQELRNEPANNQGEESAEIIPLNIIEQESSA

B1: [N-terminal(C18 diacid), 9V]mimylin (peptide)
peptide: {C18 diacid}-EASELSTAVLGRLSAELHELATLPRTETGPESP-NH2
SMILES: CC(C)C[C@H](NC(=O)[C@H](CCC(=O)O)NC(=O)[C@H](Cc1c[nH]cn1)NC(=O)[C@H](CC(C)C)NC(=O)[C@H](CCC(=O)O)NC(=O)[C@H](C)NC(=O)[C@H](CO)NC(=O)[C@H](CC(C)C)NC(=O)[C@H](CCCNC(=N)N)NC(=O)CNC(=O)[C@H](CC(C)C)NC(=O)[C@@H](NC(=O)[C@H](C)NC(=O)[C@@H](NC(=O)[C@H](CO)NC(=O)[C@H](CC(C)C)NC(=O)[C@H](CCC(=O)O)NC(=O)[C@H](CO)NC(=O)[C@H](C)NC(=O)[C@H](CCC(=O)O)NC(=O)CCCCCCCCCCCCCCCCC(=O)O)[C@@H](C)O)C(C)C)C(=O)N[C@@H](C)C(=O)N[C@H](C(=O)N[C@@H](CC(C)C)C(=O)N1CCC[C@H]1C(=O)N[C@@H](CCCNC(=N)N)C(=O)N[C@H](C(=O)N[C@@H](CCC(=O)O)C(=O)N[C@H](C(=O)NCC(=O)N1CCC[C@H]1C(=O)N[C@@H](CCC(=O)O)C(=O)N[C@@H](CO)C(=O)N1CCC[C@H]1C(N)=O)[C@@H](C)O)[C@@H](C)O)[C@@H](C)O
notes: also called Ex. #9
B2: [N-terminal(C18 diacid), 17I]mimylin (peptide)
peptide: {C18 diacid}-EASELSTAALGRLSAEIHELATLPRTETGPESP-NH2
SMILES: CC[C@H](C)[C@H](NC(=O)[C@H](CCC(=O)O)NC(=O)[C@H](C)NC(=O)[C@H](CO)NC(=O)[C@H](CC(C)C)NC(=O)[C@H](CCCNC(=N)N)NC(=O)CNC(=O)[C@H](CC(C)C)NC(=O)[C@H](C)NC(=O)[C@H](C)NC(=O)[C@@H](NC(=O)[C@H](CO)NC(=O)[C@H](CC(C)C)NC(=O)[C@H](CCC(=O)O)NC(=O)[C@H](CO)NC(=O)[C@H](C)NC(=O)[C@H](CCC(=O)O)NC(=O)CCCCCCCCCCCCCCCCC(=O)O)[C@@H](C)O)C(=O)N[C@@H](Cc1c[nH]cn1)C(=O)N[C@@H](CCC(=O)O)C(=O)N[C@@H](CC(C)C)C(=O)N[C@@H](C)C(=O)N[C@H](C(=O)N[C@@H](CC(C)C)C(=O)N1CCC[C@H]1C(=O)N[C@@H](CCCNC(=N)N)C(=O)N[C@H](C(=O)N[C@@H](CCC(=O)O)C(=O)N[C@H](C(=O)NCC(=O)N1CCC[C@H]1C(=O)N[C@@H](CCC(=O)O)C(=O)N[C@@H](CO)C(=O)N1CCC[C@H]1C(N)=O)[C@@H](C)O)[C@@H](C)O)[C@@H](C)O
notes: also called Ex. #11
B3: [N-terminal(C18 diacid), 18A]mimylin (peptide)
peptide: {C18 diacid}-EASELSTAALGRLSAELAELATLPRTETGPESP-NH2
SMILES: CC(C)C[C@H](NC(=O)[C@H](C)NC(=O)[C@H](C)NC(=O)[C@@H](NC(=O)[C@H](CO)NC(=O)[C@H](CC(C)C)NC(=O)[C@H](CCC(=O)O)NC(=O)[C@H](CO)NC(=O)[C@H](C)NC(=O)[C@H](CCC(=O)O)NC(=O)CCCCCCCCCCCCCCCCC(=O)O)[C@@H](C)O)C(=O)NCC(=O)N[C@@H](CCCNC(=N)N)C(=O)N[C@@H](CC(C)C)C(=O)N[C@@H](CO)C(=O)N[C@@H](C)C(=O)N[C@@H](CCC(=O)O)C(=O)N[C@@H](CC(C)C)C(=O)N[C@@H](C)C(=O)N[C@@H](CCC(=O)O)C(=O)N[C@@H](CC(C)C)C(=O)N[C@@H](C)C(=O)N[C@H](C(=O)N[C@@H](CC(C)C)C(=O)N1CCC[C@H]1C(=O)N[C@@H](CCCNC(=N)N)C(=O)N[C@H](C(=O)N[C@@H](CCC(=O)O)C(=O)N[C@H](C(=O)NCC(=O)N1CCC[C@H]1C(=O)N[C@@H](CCC(=O)O)C(=O)N[C@@H](CO)C(=O)N1CCC[C@H]1C(N)=O)[C@@H](C)O)[C@@H](C)O)[C@@H](C)O
notes: also called Ex. #13

target: T1, human calcitonin receptor; assay: whole-cell competition vs 125I-human calcitonin (Assay VIIa)
Method in brief: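 BHK tk'ts 13 cells stably co-expressing human calcitonin receptor and a CRE-luciferase reporter, seeded overnight at 37 °C. Bound tracer counted by scintillation after cold HBSS washes and NaOH/SDS lysis; IC₅₀ from one-site competition fit taken as receptor affinity.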

First: B1
Second: B2
The IC50 of the first is 1.9-fold lower: 0.736 nM for the first, 1.37 nM for the second. The first is the more potent here.

With B3 the IC50 was 0.279 nM.
